Reference: patent publication US20240400711A1 (SOUND BIOPHARMACEUTICALS, published 2024)
Read-outs that look alike come from different tables or passages of the source.

Columns and labels:
[1] = target: T1, recombinant extracellular domain of CD38 (human, UniProt P28907 43-300); assay: Biacore SPR
T1 construct: also called CD38 extracellular domain; AtaGenix ATMP00140HU

[2] = target: T2, mouse CD38 antigen protein (mouse, UniProt P56528 45-304, limits assumed); assay: ELISA on coated mouse CD38 antigen (1 µg/mL) [panel Mouse CD38]
T2 construct: also called mouse antigen
T2 sequence (looked up): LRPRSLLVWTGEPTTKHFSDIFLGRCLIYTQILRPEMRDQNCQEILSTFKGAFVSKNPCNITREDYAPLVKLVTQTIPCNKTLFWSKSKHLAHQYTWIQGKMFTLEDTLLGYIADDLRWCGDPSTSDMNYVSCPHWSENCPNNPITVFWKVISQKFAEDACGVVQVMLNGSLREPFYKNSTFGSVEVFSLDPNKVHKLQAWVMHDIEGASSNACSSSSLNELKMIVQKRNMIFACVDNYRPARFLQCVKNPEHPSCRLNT

[3] = target: T1, recombinant extracellular domain of CD38; assay: Biacore SPR; remark: listed apart in the source
[4] = target: T3, rat CD38 antigen protein (rat, UniProt Q64244 45-303, limits assumed); assay: ELISA on coated rat CD38 antigen (1 µg/mL) [panel Rat CD38]
T3 construct: also called rat antigen
T3 sequence (looked up): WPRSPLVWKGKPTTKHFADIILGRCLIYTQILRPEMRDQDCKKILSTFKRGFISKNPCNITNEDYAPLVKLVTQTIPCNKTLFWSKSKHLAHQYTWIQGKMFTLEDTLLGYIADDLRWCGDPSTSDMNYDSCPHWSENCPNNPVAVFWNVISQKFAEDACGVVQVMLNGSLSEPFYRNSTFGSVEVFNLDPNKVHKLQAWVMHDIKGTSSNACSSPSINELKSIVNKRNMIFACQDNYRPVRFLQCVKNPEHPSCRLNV

[5] = target: T4, CD38 on CD38-positive cells (human, UniProt P28907 1-300); assay: flow cytometry on CD38-positive H211 cells
T4 construct: whole, on cells; also called CD38 on H211, SU-DHL-6, Daudi, Ramos (Romas), Raji, SU-DHL-1, DU145, H157 cells

[6] = target: T4, CD38 on CD38-positive cells; assay: flow cytometry on SU-DHL-6 cells (B cell lymphoma), MFI against antibody concentration [table, row SU-DHL-6]
[7] = target: T4, CD38 on CD38-positive cells; assay: cell-based or functional assay
[8] = target: T5, human CD38 antigen protein (coated in ELISA) (human, UniProt P28907 43-300, limits assumed); assay: ELISA on coated CD38 antigen, OD (450 nm) against antibody concentration (ng/ml) [Plate3]
T5 construct: also called the antigen CD38; human antigen

[9] = target: T4, CD38 on CD38-positive cells; assay: flow cytometry on NCI-H211 cells (small cell lung cancer), MFI against antibody concentration [table, row NCI-H211]
[10] = target: FcγRIIIa (V176) (UniProt P08637 17-208, limits assumed); assay: kinetics, FcγRIIIa as ligand, antibody as analyte
[11] = target: FcγRIIIa(F176) (UniProt P08637 17-208, limits assumed); assay: kinetics, FcγRIIIa as ligand, antibody as analyte
[12] = target: T6, rhesus macaque erythrocytes (rhesus macaque); assay: flow cytometry on rhesus macaque erythrocytes
T6 chain: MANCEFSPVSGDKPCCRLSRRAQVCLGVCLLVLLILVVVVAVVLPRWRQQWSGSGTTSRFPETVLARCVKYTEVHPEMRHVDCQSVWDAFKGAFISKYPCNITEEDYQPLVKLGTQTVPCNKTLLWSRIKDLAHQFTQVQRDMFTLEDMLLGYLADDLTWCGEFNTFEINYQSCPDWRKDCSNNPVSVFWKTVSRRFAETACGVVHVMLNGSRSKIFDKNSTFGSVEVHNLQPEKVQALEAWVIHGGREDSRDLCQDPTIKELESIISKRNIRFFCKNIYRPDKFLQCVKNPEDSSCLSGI

FcγRIIIa (V176), sequence (P08637 17-208 F176V limits assumed): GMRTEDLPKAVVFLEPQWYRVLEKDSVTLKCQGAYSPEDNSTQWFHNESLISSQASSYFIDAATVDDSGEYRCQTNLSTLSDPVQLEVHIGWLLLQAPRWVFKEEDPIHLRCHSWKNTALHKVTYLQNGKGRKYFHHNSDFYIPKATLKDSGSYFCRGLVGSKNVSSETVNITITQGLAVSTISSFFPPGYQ
FcγRIIIa(F176), sequence (P08637 17-208 limits assumed): as the sequence (P08637 17-208 F176V limits assumed) above, with V160F counted along it

B1: H2 antibody (antibody, V domains shown)
VH: EVQLQESGAELVRSGASVKMSCKASGYTFTDYNVHWIKQTPGQGLEWIGYFYPRNGATHYNQKFTGKATLTADTSSSTAYIQISSLTSEDSAVYFCARGETPGTFPYWGQGTLVTVSA
VL: DIVLTQSPASLTVSLGQRATISCRASESVDNFGITFMHWYQQKPGQPPKLLIYRASNLESGIPARFSGSGSRTDFTLTIDPVETDDVATYYCQQSSKDPRTFGGGTKLEIK
notes: Murine monoclonal antibody from a BALB/c hybridoma; also called H2 mAb; Hybridoma-2
Kd [1]: 0.00202 µM
koff [1]: 0.0005 s⁻¹
kon [1]: 248000 M⁻¹ s⁻¹
binding result [2]: no binding (tested: 300 µg/ml)
Kd [3]: 0.0146 µM
koff [3]: 0.000969 s⁻¹
kon [3]: 66100 M⁻¹ s⁻¹
binding result [4]: no binding (tested: 300 µg/ml)

B2: Daratumumab (antibody, V domains shown)
VH: EVQLLESGGGLVQPGGSLRLSCAVSGFTFNSFAMSWVRQAPGKGLEWVSAISGSGGGTYYADSVKGRFTISRDNSKNTLYLQMNSLRAEDTAVYFCAKDKILWFGEPVFDYWGQGTLVTVSS
VL: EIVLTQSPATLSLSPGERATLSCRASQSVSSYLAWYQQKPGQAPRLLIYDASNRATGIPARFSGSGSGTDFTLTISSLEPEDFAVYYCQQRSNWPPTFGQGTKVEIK
Kd [1]: 0.00196 µM
koff [1]: 0.000355 s⁻¹
kon [1]: 181000 M⁻¹ s⁻¹
EC50 [5]: 1.94 mg/L
EC50 [6]: 0.548 mg/L
Kd [3]: 0.0122 µM
koff [3]: 0.00363 s⁻¹
kon [3]: 297000 M⁻¹ s⁻¹
Rate of apoptosis (%), Daudi cells [7]: 10.6%
Rate of apoptosis (%), Raji cells [7]: 5.73%
Rate of apoptosis (%), Romas cells [7]: 9.78%
Rate of apoptosis (%), SU-DHL-6 cells [7]: 10.4%

B3: FTL004-hu-10 (antibody, human IgG1, kappa, V domains shown)
VH: QVQLVQSGAEVKKPGASVKVSCKASGYTFTDYNVHWIRQAPGQGLEWIGYFYPRNGATHYAQKFQGRVTMTVDTSTSTAYMELSSLRSEDTAVYYCARGETPGTFPYWGQGTLVTVSS
VL: EIVLTQSPATLSLSPGERATLSCRASESVDNFGITFMHWYQQKPGQAPRLLIYRASNLESGIPARFSGSGSRTDFTLTISSLEPEDFAVYYCQQSSKDPRTFGQGTKLEIKR
notes: also called FLT004-hu-10; FTL004-hum-10
Kd [1]: 0.0149 µM
koff [1]: 0.00241 s⁻¹
kon [1]: 162000 M⁻¹ s⁻¹
EC50 (read off the curve) [8]: ~0.3 mg/L

B4: FTL004-hu-14 (antibody, human IgG1, kappa, V domains shown)
VH: EVQLVQSGAEVKKPGATVKISCKASGYTFTDYNVHWIQQAPGKGLEWIGYFYPRNGATHYAEKFQGRVTLTADTSTDTAYMELSSLRSEDTAVYYCARGETPGTFPYWGQGTLVTVSS
VL: DIVLTQSPASLAVSPGQRATITCRASESVDNFGITFMHWYQQKPGQPPKLLIYRASNLESGVPARFSGSGSRTDFTLTINPVEANDTANYYCQQSSKDPRTFGQGTKLEIKR
notes: also called FLT004-hu-14; FTL004-hum-14
Kd [1]: 0.0224 µM
koff [1]: 0.00466 s⁻¹
kon [1]: 208000 M⁻¹ s⁻¹
EC50 (read off the curve) [8]: ~0.5 mg/L

B5: FTL004-hu-7 (antibody, human IgG1, kappa)
heavy: not shown
light: DIVLTQSPASLAVSPGQRATITCRASESVDNFGITFMHWYQQKPGQPPKLLIYRASNLESGVPARFSGSGSRTDFTLTINPVEANDTANYYCQQSSKDPRTFGQGTKLEIKRTVAAPSVFIFPPSDEQLKSGTASVVCLLNNFYPREAKVQWKVDNALQSGNSQESVTEQDSKDSTYSLSSTLTLSKADYEKHKVYACEVTHQGLSSPVTKSFNRGEC
notes: Fc before engineering; also called FLT004-hu-7; FTL004-hum-7
Kd [1]: 0.0024 µM
koff [1]: 0.000766 s⁻¹
kon [1]: 320000 M⁻¹ s⁻¹
Rate of apoptosis (%), Daudi cells [7]: 34.5%
Rate of apoptosis (%), Raji cells [7]: 12.1%
Rate of apoptosis (%), Romas cells [7]: 31.1%
Rate of apoptosis (%), SU-DHL-6 cells [7]: 19.9%

B6: FTL004-1 (antibody, human IgG1, kappa)
heavy: not shown
light: DIVLTQSPASLAVSPGQRATITCRASESVDNFGITFMHWYQQKPGQPPKLLIYRASNLESGVPARFSGSGSRTDFTLTINPVEANDTANYYCQQSSKDPRTFGQGTKLEIKRTVAAPSVFIFPPSDEQLKSGTASVVCLLNNFYPREAKVQWKVDNALQSGNSQESVTEQDSKDSTYSLSSTLTLSKADYEKHKVYACEVTHQGLSSPVTKSFNRGEC
notes: copies: 2 + 2
EC50 [9]: 0.555 mg/L
Kd [10]: 0.0295 µM
koff [10]: 0.0229 s⁻¹
kon [10]: 778000 M⁻¹ s⁻¹
Kd [11]: 0.0195 µM
EC50 [12]: 2 to 5 mg/L
Rate of apoptosis (%), Daudi cells [7]: 40.9%
Rate of apoptosis (%), Raji cells [7]: 7.14%
Rate of apoptosis (%), Romas cells [7]: 64.2%
Rate of apoptosis (%), SU-DHL-6 cells [7]: 21.2%

B7: FTL004-hu-1 (antibody, human IgG1, kappa)
heavy: not shown
light: DIVLTQSPASLAVSPGQRATITCRASESVDNFGITFMHWYQQKPGQPPKLLIYRASNLESGVPARFSGSGSRTDFTLTINPVEANDTANYYCQQSSKDPRTFGQGTKLEIKRTVAAPSVFIFPPSDEQLKSGTASVVCLLNNFYPREAKVQWKVDNALQSGNSQESVTEQDSKDSTYSLSSTLTLSKADYEKHKVYACEVTHQGLSSPVTKSFNRGEC
notes: human IgG1 type constant regions, Fc before engineering; also called FLT004-hu-1; FTL004-hum-1
Kd [1]: 0.00142 µM
Rate of apoptosis (%), Daudi cells [7]: 36.9%
Rate of apoptosis (%), Raji cells [7]: 14.8%
Rate of apoptosis (%), Romas cells [7]: 62.7%
Rate of apoptosis (%), SU-DHL-6 cells [7]: 20.2%

B8: FTL004-7 (antibody, human IgG1, kappa)
heavy: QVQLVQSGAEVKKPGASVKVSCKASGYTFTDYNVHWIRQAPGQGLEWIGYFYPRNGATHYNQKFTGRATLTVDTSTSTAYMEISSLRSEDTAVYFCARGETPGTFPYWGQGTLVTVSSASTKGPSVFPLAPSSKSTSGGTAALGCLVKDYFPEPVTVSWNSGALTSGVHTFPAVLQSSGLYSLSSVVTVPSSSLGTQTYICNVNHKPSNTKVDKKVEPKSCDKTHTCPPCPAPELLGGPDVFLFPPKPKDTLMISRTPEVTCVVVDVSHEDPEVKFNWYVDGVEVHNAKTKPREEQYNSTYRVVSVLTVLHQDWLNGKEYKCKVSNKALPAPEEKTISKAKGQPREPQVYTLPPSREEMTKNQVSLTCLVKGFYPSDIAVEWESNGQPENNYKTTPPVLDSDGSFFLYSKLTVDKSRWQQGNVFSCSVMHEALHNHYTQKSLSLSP
light: DIVLTQSPASLAVSPGQRATITCRASESVDNFGITFMHWYQQKPGQPPKLLIYRASNLESGVPARFSGSGSRTDFTLTINPVEANDTANYYCQQSSKDPRTFGQGTKLEIKRTVAAPSVFIFPPSDEQLKSGTASVVCLLNNFYPREAKVQWKVDNALQSGNSQESVTEQDSKDSTYSLSSTLTLSKADYEKHKVYACEVTHQGLSSPVTKSFNRGEC
notes: copies: 2 + 2
Kd [10]: 0.0369 µM
koff [10]: 0.021 s⁻¹
kon [10]: 570000 M⁻¹ s⁻¹
Kd [11]: 0.0227 µM
koff [11]: 0.0136 s⁻¹
kon [11]: 599000 M⁻¹ s⁻¹
Rate of apoptosis (%), Daudi cells [7]: 37.4%
Rate of apoptosis (%), Raji cells [7]: 17.8%
Rate of apoptosis (%), Romas cells [7]: 60.3%
Rate of apoptosis (%), SU-DHL-6 cells [7]: 20.3%

B9: FTL004-hu-6 (antibody, human IgG1, kappa)
heavy: not shown
light: DIQLTQSPSSLSASVGDRVTITCQASESVDNFGITFMHWYQQKPGKAPKLLIYRASNLETGVPSRFSGSGSRTDFTFTISSLQPEDIATYYCQQSSKDPRTFGQGTKLEIKRTVAAPSVFIFPPSDEQLKSGTASVVCLLNNFYPREAKVQWKVDNALQSGNSQESVTEQDSKDSTYSLSSTLTLSKADYEKHKVYACEVTHQGLSSPVTKSFNRGEC
notes: Fc before engineering; also called FLT004-hu-6; FTL004-hum-6
Kd [1]: 0.00244 µM
koff [1]: 0.000677 s⁻¹
kon [1]: 277000 M⁻¹ s⁻¹
Rate of apoptosis (%), Daudi cells [7]: 29.3%
Rate of apoptosis (%), Raji cells [7]: 13.8%
Rate of apoptosis (%), Romas cells [7]: 63.6%
Rate of apoptosis (%), SU-DHL-6 cells [7]: 16.8%
